Measured values published in the nanobody polyreactivity screen of Harvey et al. (2022).

experiment: yeast display, Sf9 membrane polyspecificity reagent, FACS + sequencing; frameworks hold sequencing errors
Method in brief: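 Genes from sorted yeast were amplified by colony PCR, read by MiSeq 2 × 250 sequencing and filtered on CDR length. These cells carried a synthetic nanobody library in Saccharomyces cerevisiae BJ5465 and were sorted by FACS into low and high (top ~1%) gates on anti-HA and streptavidin fluorescence. Polyreactivity is labelled according to the gate of origin.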

Row | Sequence | polyreactivity (PSR sort gate)
1 | QVQLVESGGGLVQAGGSLRLSCAASGSTFKGYAMGWYRQAPGKERELVAAITWSSGRTYYADSVKGRFTISRDNAKNTVYLQMNSLKPEDTAVYYCAAKSRRTRRSYYWGQGTQVTVSS | high polyreactivity
2 | QVQLVESGGGLVQAGGSLRLSCAASGSTFKIYAMGWYRQAPGKERELVAVITSGGRTNYADSGKGRFTISRDNAKNTVYLQMNSLKPEDTAVYYCARGRSIHSSNRLEYWGQGTQVTVSS | high polyreactivity
3 | QVQLVESGGGLVQAGGSLRLSCAASGSTFKKYVMGWYRQAPGKERELVAAISSTGRTNYADSVKGRFTISRDNAKNTVYLQMNSLKPEDTAVYYCAKRYRKYSLGPPGNDYWGQGTQVTVSS | high polyreactivity
4 | QVQLVESGGGLVQAGGSLRLSCAASGSTFKLYAMGWYRPAPGKERELVAAITRSGTRTYYADSVKGRFTISRDNAKNTVYLQMNSLKPEDTAVYYCAADGYRISGYDYWGQGTQVTVSS | high polyreactivity
5 | QVQLVESGGGLVQAGGSLRLSCAASGSTFKPNVMGWYRPAPGKERELVAAITSTDDRTYYADSVKGRFTISRDNAKNTVYLQMNSLKPEDTAVYYCNRPYAWYGYIYNYWGQGTQVTVSS | low polyreactivity
6 | QVQLVESGGGLVQAGGSLRLSCAASGSTFKQYTMGWYRQAPGKERELVAAISWSGTSTYYADSVKGRFTISRDNAKNTVYLLMNSLKAEDTAVYYCAAVSYVWQYYYWGQGTQVTVSS | high polyreactivity
7 | QVQLVESGGGLVQAGGSLRLSCAASGSTFKRNAMGWYRQAPGKERELVAAISFRGGSTYYADSVKGRFTISRDNAKNTVYLQMNSLKPEDTAVYSCAAGIYRIRGGGISFDYWGQGTQVTVSS | high polyreactivity
8 | QVQLVESGGGLVQAGGSLRLSCAASGSTFKRYAMGWYRQAPGKDRELVAAIRRGGITNYADSVKGRFTISRDNAKNTVYLQMNSLKPEDTAVYYCAKDGVTYPYSYEYDYWGQGTQVTVSS | low polyreactivity
9 | QVQLVESGGGLVQAGGSLRLSCAASGSTFKRYAMGWYRQAPGKERELVAAISSGGTTNYADSVKGRFTISRDNAKNTVYLQMNSLKPEDTAVYYCNRKFRYSSHTNYYYWGQGTQVTVSS | high polyreactivity
10 | QVQLVESGGGLVQAGGSLRLSCAASGSTFKRYAMGWYRQAPGKERELVAAITNGDRTNYADSVKGRFTISRDNAKKTVYLQMNSLKPEDTAVYYCAAAYSRYTSRFYYWGQGTQVTVSS | high polyreactivity
11 | QVQLVESGGGLVQAGGSLRLSCAASGSTFKRYAMGWYRQAPGKERELVASISSGGSTNYADSVKGRFTISRDNAKNTVYLQMNSLKPEDTAVYYCATYLVTGGGLNVRYDYWGQGTQVTVSS | high polyreactivity
12 | QVQLVESGGGLVQAGGSLRLSCAASGSTFKRYAMGWYRQAPGKERELVASISSGGSTNYVDSVKGRFTISRDNAKNTVYLQMNSLKPEDTAVYYCAVSYRSFRYYWERYYSWGQGTQVTVSS | high polyreactivity
13 | QVQLVESGGGLVQAGGSLRLSCAASGSTFKRYAMGWYRQAPGKERELVATINSGTSTNYADSVKGRFTISRDNAKNTVYLEMNSLKPEETAVYYCAKSFRRSVGGYGYDYWGQGTQVSVSS | low polyreactivity
14 | QVQLVESGGGLVQAGGSLRLSCAASGSTFKRYTMGWYRQAPGKERELVAAISTSSGSTYFADSVKGRFTISRDNAKISVYLQMNSLKPEDSAVYYCDAVRLRQTYPKYNYWGQGTQVTVSS | high polyreactivity
15 | QVQLVESGGGLVQAGGSLRLSCAASGSTFKTYAMGWYRQAPGKEREFVASISTSGGSTYYADSVKGRFTISRDNAKNTVYLQMNSLKPEDTAVYYCAAKGRSYGVTRMYYWGQGTQVTVSS | high polyreactivity
16 | QVQLVESGGGLVQAGGSLRLSCAASGSTFKTYAMGWYRQAPGKESELVAAISWSGGSTYYADSVKGRFTISRDNAKNTVYLQMNSLKPEDTAVYYCNAGWGYPSPWFIGEYWGQGTQVTVSS | low polyreactivity
17 | QVQLVESGGGLVQAGGSLRLSCAASGSTFKVYAMRWYRQAPGKERELVARISTRVGSTYYADSVKGRFTISRDNAKNSVYLQMNSLKAEDSAVYYCNARWWDPPYYYWGQGTQVTVSS | high polyreactivity
18 | QVQLVESGGGLVQAGGSLRLSCAASGSTFKVYTMGWYRQAPGKERELVAAITGGGGSTYYADSVKGRFTISRDNAKNTVSLQMNSLKPEDTAVYYCAAQKRGPGYPYYYWGQGTQVTVSS | high polyreactivity
19 | QVQLVESGGGLVQAGGSLRLSCAASGSTFKWYAMGWYRQAPGKERELVAAITVSGDSTYYADSVKGRFTISRDNAKNTVYLQMNSLKPEDTAVYYCAKDYQGITPYDYWGQGTQVTVSS | low polyreactivity
20 | QVQLVESGGGLVQAGGSLRLSCAASGSTFKWYGRGWSRQAPGKDRELVATINYSSSTTYYADSVKGRFTISRDNAKNTVYLQMNSLKPEDTAVYYCAKGVYWGTKSTYDYWGQGTQVTVSS | high polyreactivity
21 | QVQLVESGGGLVQAGGSLRLSCAASGSTFKYNAMGWYRQAPGKERELDAAISSSGGSTSYADSVKGRFTISRDNAKNTVYLQMNSLKPEDTAVYYCAADSYPAYLGFVGFDYWGQGSQVTVSS | low polyreactivity

Row | Sequence | polyreactivity (PSR sort gate)
22 | QVQLVESGGGLVQAGGSLRLSCAASGSTFKYNAMGWYRQAPGKERELVASISRSGGSTYYADSVKGRFTISRDNAKNTVYLQMNSLKPEDTAVYYCNVRRFVHYEYWGHGTQVTVSS | high polyreactivity
23 | QVQLVESGGGLVQAGGSLRLSCAASGSTFKYNTMGWYRQAPGKKGELVAAITISGGTTRYADSVKGRFTISRDNAKNTVYLQMNSLKPEDTAVYYCAARVYTYYYDLHKRYYWGQGTQVTVSS | high polyreactivity
24 | QVQLVESGGGLVQAGGSLRLSCAASGSTFKYYAMGWYRPAPGKERELVAAISGRGGRTYYADSVKGRFTISRDNAKNTVYLQMNSLKPEDTAVYYCNAPFLGAHHYGYEYWGQRTQVTVSS | high polyreactivity
25 | QVQLVESGGGLVQAGGSLRLSCAASGSTFKYYAMGWYRQAAGKERELVATITRRSGSTYYADSVKGRFTISRDNAKNTVYLQMNSLKPEDTAVYYCNAYGPYKYNYWGQGTQVTVSS | high polyreactivity
26 | QVQLVESGGGLVQAGGSLRLSCAASGSTFKYYAMGWYRQAPGKEMELVAAIRGGGSTNYADSVTGPFTISRDNAKNTVYLQMNSLKPEDTAVYYCAARYGWYRGYNYWGQGTQVTVSS | high polyreactivity
27 | QVQLVESGGGLVQAGGSLRLSCAASGSTFKYYAMGWYRQAPGKERELVAAISASGGTTYYADSVKGRFTISRDNAKNTVYVQMNSLKPEDTAVYDCAARYLTTFSRTDMEYWGQGTQVTVSS | low polyreactivity
28 | QVQLVESGGGLVQAGGSLRLSCAASGSTFKYYAMGWYRQAPGKERELVATITRRSGSTYYADSVKGRFTISRDNAKNTVYLQMNSLKPEDTAVYYCNAYGPYKYNYWGQGTQVTVSS | high polyreactivity
29 | QVQLVESGGGLVQAGGSLRLSCAASGSTFLDNTMGWYRQAPGKEREFVAAISSSVYSTYYADSVKGRFSISRDNAKNTVYLQMNSLKPEDTAVYFCAADRGFYPSLWDYDYWGQGTQVTVSS | low polyreactivity
30 | QVQLVESGGGLVQAGGSLRLSCAASGSTFLDYAMGWYRQAPGKERELVAGINSGGSTNYADSVKGRFTISRDNAKNTVYLQMNSLKPEDTAVYYCAADRVGNEYDYWGQGTQVTVSS | low polyreactivity
31 | QVQLVESGGGLVQAGGSLRLSCAASGSTFLDYTMGWYRQAPGKERELVAVISYRAGSTYYADSVKGRFTISRDNAKNTVYLQMNSLKPEDTAVYYCNADYYNYWLRRRYVWYESWGQGTQVTVSS | low polyreactivity
32 | QVQLVESGGGLVQAGGSLRLSCAASGSTFLGNAMGWYRQAPGKEREFVAAITVSGGSTYYADSVKGRFTISRDNAKNTVYLQMNSLKPEDTAVYYCAARYLRYSSKTIQNEDYWGQVTQVTVSS | high polyreactivity
33 | QVQLVESGGGLVQAGGSLRLSCAASGSTFLGNAMGWYRQAPGKERELVAAISGRGGSTYYADSVKGRFTISRDNAKNTVYLQMNSLKPEDTAVYYCAAPLYHYVQYGYWGQGTQVTVSS | high polyreactivity
34 | QVQLVESGGGLVQAGGSLRLSCAASGSTFLGNAMGWYRQAPGKERELVASIRWTTGSTYYADSVKGRFTISRDNAKNTVYLQMNSLKPEDTAVYYCAKGLYVQFDYWGLGTQVTVSS | low polyreactivity
35 | QVQLVESGGGLVQAGGSLRLSCAASGSTFLGYAMGWYRQAPGKERELVAAITYSAGSTYYADSVKGRFTISRDNAKNTVYLQMNSLKPEDTAVYYSAKRYSGYDHWGQGTQVTVSS | low polyreactivity
36 | QVQLVESGGGLVQAGGSLRLSCAASGSTFLGYAMGWYRQAPGKERELVAVIDNGGDTYYADSVKGRFTISRDNAKNTVYLQINSLKPEDTEVYYCAADLSYLGYWEYDYWGQGTQVTVSS | low polyreactivity
37 | QVQLVESGGGLVQAGGSLRLSCAASGSTFLKNAMGWYRQAPGKERELVAAISYSTTRTYYADSVKGRFTISRDNAKNTVYLQMNSLKPEDTAVYSCNARWQEPLKYDYWGQGTQVTVSS | low polyreactivity
38 | QVQLVESGGGLVQAGGSLRLSCAASGSTFLKNAMGWYRQAPGKERELVAAISYSTTRTYYADSVKGRFTISRDNAKNTVYLQMNSLKPEDTAVYYCNKASYWGSGFDYWGQGTQVTVSS | low polyreactivity
39 | QVQLVESGGGLVQAGGSLRLSCAASGSTFLNYAMGWYRQAPGKERELVAAISFSGGRTYYADSVKGRFTISRDNAKNTVYLQMNSLKPEDTAVYYCAAGGWRGHYYWGQGTQVTVSS | high polyreactivity
40 | QVQLVESGGGLVQAGGSLRLSCAASGSTFLNYAMGWYRQAPWKERELVAAISGRGGRTYYADSVKGRFTISRDNATNTVYLQMNSLKPEDTAVYYCANKRRGGYLYRQELDYWGQGTQVTVSS | high polyreactivity
41 | QVQLVESGGGLVQAGGSLRLSCAASGSTFLPNAMGWYRQAPGTERELVATITFDGGSTYYADSVKGRFTISRDNAKNTVYLQMNSLKPEDTAVYYCNTVELYWRGYDYWGQGTQVTVSS | high polyreactivity
